Laboratory results taken from the nanobody polyreactivity screen of Harvey et al. (2022).

Experiment: yeast display, Sf9 membrane polyspecificity reagent, FACS + sequencing; frameworks hold sequencing errors
In short: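 Nanobodies from a synthetic yeast display library (Saccharomyces cerevisiae BJ5465), induced 36–48 hours with galactose, were stained 1 hour at 4 °C with 10% biotinylated, detergent-solubilized Sf9 membrane reagent, enriched on streptavidin microbeads, then FACS-sorted. Anti-HA (expression) and streptavidin (reagent binding) fluorescence set low and high (top ~1%) gates. Polyreactivity labels come from the gate of origin. Genes were colony-PCR amplified, MiSeq 2 × 250 sequenced and filtered by CDR length.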

Sequence	polyreactivity (PSR sort gate)
QVQLVESGGGLVQAGGSLRLSCAASGSTFDVYAMGWYRQAPGKERELVAAITWIGGSTYYADSVKGRFTISRDNAKNTVYLQMNSLKPEDTAVYYCARHDYGWVDYWGQGTQVTVSS	high polyreactivity
QVQLVESGGGLVQAGGSLRLSCAASGSTFDVYAMGWYRQAPGKERELVAALTSGGTTNYADSVKGRFTISRDNAKNTVYLQMNSLKPEDTAVSYCNARLTLRSYDYWGQGTLVTVSS	low polyreactivity
QVQLVESGGGLVQAGGSLRLSCAASGSTFDYNSMGWYRQAPGKERELVATINDSGGNTYYADSVKGRFTISRDNAKNTVYLQMNSLKPEDTAVYYCATVGYLYTPVVVTWWDWGDYWGQGTQVTVSS	low polyreactivity
QVQLVESGGGLVQAGGSLRLSCAASGSTFDYNTMGWYRQAPGKERELVAVITYSGGRTYYADSVKGRFTISRDNAKNTVYLQMNSLKPEDTAVYYCNARYGYPLGHSIYYYWGQGTQVTVSS	low polyreactivity
QVQLVESGGGLVQAGGSLRLSCAASGSTFDYYAMGWYRQAPGKERELVAAISRTGGRTYYADSVKGRFTISRDNAKNTVYLQMNSLKPEDTAVYYCNAVTRIGGGDYDYWGQGTQVTGSS	low polyreactivity
QVQLVESGGGLVQAGGSLRLSCAASGSTFDYYAMVWYRQAPGKEREFVAAISYSGGSTYYADSVKGRFTISRDNAKNTVYLQMNSLKPEDTAVYYCAAEGYYYNLYYWGQGTEVTVSS	high polyreactivity
QVQLVESGGGLVQAGGSLRLSCAASGSTFDYYARGGYRQAPGKERELVAAISRTGGRTYYADSVKGRFTISRDNAKNTVNLQMNSLKPEDTAVYNCNAVTRIGGGDYDYWGQGTQVTVSS	low polyreactivity
QVQLVESGGGLVQAGGSLRLSCAASGSTFDYYDRGWFRQAPGKERELVAAISSGGDSTYYADSVKGRFTISRDNEKNTVYLQMNSLKPEDTAVYYCAAAVYYGQSVWYYYWGQGTQVTVSS	high polyreactivity
QVQLVESGGGLVQAGGSLRLSCAASGSTFDYYTIGWYRQAPGKERELVAAISSSGGSTYYADSVKGRFTISRDNAKNTVYLQMNSLKPEDTAVYYCAADPSPYGDEYDYWGQGTQVTVSS	low polyreactivity
QVQLVESGGGLVQAGGSLRLSCAASGSTFDYYTMGWYRQAPGKERELVAAISYSGSRTYYADSVKGRFTISRDNAKNTVYLQMNSLKPEDTAVYYCARVASSVWYKQEYSYYNFDYWGQGTQVTVSS	high polyreactivity
QVQLVESGGGLVQAGGSLRLSCAASGSTFEANAMGWYRQAPGKERELVAVITWTGGSTYYADSVKGRFTISRDNAKNTVYLQMNSLKPEDTAVDYCAADGVVPGRFFWPAHEYDYWGQGTQVTVSS	low polyreactivity
QVQLVESGGGLVQAGGSLRLSCAASGSTFEGNAMVWYRPAPGKERELVAAISSGGRTYYADSVKGRFTISRDNAKNTVYLQMNSLKPEDTAVYYCAAYVRRGFDWGQGTQVTVSS	high polyreactivity
QVQLVESGGGLVQAGGSLRLSCAASGSTFEQNAMGWYRQAPGKEREFVAAITGSGGSTYYADSVKGRFTISRDNAKNTVYLQMNSLKPEDTAVYYCAADIQDGLYWWDIYDYWGQGTQVTVSS	low polyreactivity
QVQLVESGGGLVQAGGSLRLSCAASGSTFEQYAMGWYRQAPGKERELVASISTGGGRTYYADSVKGRFTISRDNAKNTVFLQMNSLKPEDTAVYYCNKRYRGYKTGYSRYDYWGQGTQVTVSS	low polyreactivity
QVQLVESGGGLVQAGGSLRLSCAASGSTFERYAMGWYRPAPGKERELVAAISAIGDSTYYADSVKGRFTISRDNAKNTVYLQMNSLKPEDTAVYYCAARYTRYHIGRGYYYWGQGTQVTVSS	high polyreactivity
QVQLVESGGGLVQAGGSLRLSCAASGSTFESNAMGWYRQAPGKERELVAAISSSGGSTYYADSVKGRFTISRDNAKNTVYLQMNSLKPEDTAVYYCNKGGLSDYDYWGQGTQVTVSS	high polyreactivity
QVQLVESGGGLVQAGGSLRLSCAASGSTFESNAMGWYRQAPGKERELVAAISTSGGSTYYADSVKGRFTISRDNAKNTVYLQMNSLKPEDKAVYYCNAYPEAVRWKYNYWGQGTQVTVSS	low polyreactivity
QVQLVESGGGLVQAGGSLRLSCAASGSTFESNTMGWYRQAPGKERELVAASSYSGGRTYYADSVKGRFTISRVNAKNTVYFQMNILKPEDTAVYSCAARWSVSYRMYYWGQGTQVTVSS	high polyreactivity
QVQLVESGGGLVQAGGSLRLSCAASGSTFETYAMGLYRKAPGKDRELVAAITWAGDTSYADSVKGRFTISRDNAKHTVYLQMNSLKPEDTAVYYCAKDNGRAYFGRSPYDYWGQGTQVTVTS	low polyreactivity
QVQLVESGGGLVQAGGSLRLSCAASGSTFEVYAMGWYRQAPGKERELVAVINVSDGSTYYADSVKGRFTISRDNAKNTVYLQMNSLKPEDTAVYYCAAYLYNRPYQLTGYYDGYGYWGQGTQVTVSS	low polyreactivity
QVQLVESGGGLVQAGGSLRLSCAASGSTFEVYTMGWSIQSPGKVRELVATISGDDGSTYYADSVKGRFTISRDNAKNTVYLQMNSLKPEDTAVYYCAADYGGFPNYYSTGDYWGQGTQVTVSS	low polyreactivity
QVQLVESGGGLVQAGGSLRLSCAASGSTFEWNAMGWYRQAPGKERELVAAISWRTTRTYYADSVKGRFTISRDNAKNTVYLQMNSLKPEDTAVYYCAVVTSPYYGGYEYWGQGTQVTVSS	high polyreactivity

Sequence	polyreactivity (PSR sort gate)
QVQLVESGGGLVQAGGSLRLSCAASGSTFEYNAMGWYRQAPGKERELLADISYSDGSTYYADSVKGRFTISRDNAMNTVYLQMNSLKPEDTGVYYCAAYSGYGGVSMYYWGQGTHVTVSS	low polyreactivity
QVQLVESGGGLVQAGGSLRLSCAASGSTFEYNAMGWYRQAPGKERELVASSTNYADSGKGRFTISRDNAKNTVYLQMNSLKPEDTAVYYCAREQGVNRNHDYWGQGTQVTVSS	low polyreactivity
QVQLVESGGGLVQAGGSLRLSCAASGSTFEYNAMGWYRQAPGKERELVASSTNYADSVKGRFTISRDNAKNTVYLQMNSLIPEDTAVYYCAREQGVNRNHDYWGQGTQVTVSS	low polyreactivity
QVQLVESGGGLVQAGGSLRLSCAASGSTFEYNAMGWYRQAPGKERELVASSTNYADSVKGRFTISRDNAKNTVYLQMNSLKPEDTAVYYCAKTYWYPYGYWGQGTQVTVSS	low polyreactivity
QVQLVESGGGLVQAGGSLRLSCAASGSTFEYNVMGWYRQAPGKERELVAAITSGASTNYADSVKGRFTISRDNAKNSVYLQMNSLKPEDTAVYYCAAGESGSFFIYYYWGQGTQVTVSS	low polyreactivity
QVQLVESGGGLVQAGGSLRLSCAASGSTFEYYAMGWDRQAPGKERELVAAISITGGSSYYADSVKGRFTISRDNAKNTVYLQMNSLKPEDTAVCYCAASVPLARRLGYPWRRAGYNYWGQGTQVTVSS	high polyreactivity
QVQLVESGGGLVQAGGSLRLSCAASGSTFEYYAMGWYRQAPGKERELVAAISTAGSTYYADSVKGRFTISRDNAKNTVYLQMNSLKQEDTAVYYCAVDPSPRSYYNYYWGQGTQVTVSS	high polyreactivity
QVQLVESGGGLVQAGGSLRLSCAASGSTFEYYAMGWYRQAPGKERELVAGISTGGSTNYADSVKGRFTISRDNAKNTVYVQMNSLKTEDSAVYYCKRDWALYVFCRHYHAYYSWGQRTQVTVSS	low polyreactivity
QVQLVESGGGLVQAGGSLRLSCAASGSTFEYYAMGWYRQAPGKERELVATISIDGRTNYADSVKGRFTISRDNAKYTVYLQMNSLKPEDTAVYYCAASDLTAISSKYDYWGQGTQVTVSS	low polyreactivity
QVQLVESGGGLVQAGGSLRLSCAASGSTFFDYAMGWYRQAPGKERELVAAISRSGDTNYADSVKGRFTMSRDNAKNTVYLHMNSLKPEDTAVYYCAKYWAYRRHWVGFYYWGQGTLVTVSS	low polyreactivity
QVQLVESGGGLVQAGGSLRLSCAASGSTFFEYAMGWYRKAPGKEREFVAGISWSGGITYYADSVKGRFTISRDNAKNTVYLQMNSLKPEDTAVYYCATAGGDWYGVDYWGQGTQVTVSS	low polyreactivity
QVQLVESGGGLVQAGGSLRLSCAASGSTFFFNAMGWYRQAPGKERELVAGISSSGGSTHYADSVKGRFTISRDNAKNTVYLQMNSLKPEDTAVYYCNAQQYLTFRGTGDYWGQGTQVTVSS	low polyreactivity
QVQLVESGGGLVQAGGSLRLSCAASGSTFFGNTMGWYRQAPGKERELVAAISRRGGSTYYADSVKGRFTISRDNAKNTVYLQMTSLIPEDTAVYYCAKYYQSGGYTPGKYDYWGQGTQVTVSS	high polyreactivity
QVQLVESGGGLVQAGGSLRLSCAASGSTFFGYAMGWYRQAPGKERELVASITWSSGRTNYADSVKGRFTISRDNAKNTVFLQRYSVKPEETAVYYCAQVLDHQLYIDHWVRIYGYWGQGTQVTVSS	low polyreactivity
QVQLVESGGGLVQAGGSLRLSCAASGSTFFIYAMGRYRQAPGEERELVAAITSGGTYADSVKGRFTISRDNAKNTVYLQMNSLKPVDTAVYYCNAGNNVVVDYDYWGQGTQVTVSS	low polyreactivity
QVQLVESGGGLVQAGGSLRLSCAASGSTFFPNAMGWYRQAPGKERELVAAIRWRGGTYYADSVKGRFTISRDNAKNTVYLQMNSLKQEDTAVYYCATSVKPSYDYWGQGTQVTVSS	low polyreactivity
QVQLVESGGGLVQAGGSLRLSCAASGSTFFPNDKGWYRQAPGKERELVAAISWRGGNTYADSVKGLFTISRDNAKYTVYLQMNSLKPEDTAVYYCAAEFWYTYPYLVDYWGQGTLVTVSS	low polyreactivity
QVQLVESGGGLVQAGGSLRLSCAASGSTFFPNGMGWYRLAPGKERELVAAITQDGGSTYYADSVKGRFTISRDNAKNTVSLQMNSLKPEDTAVYYCAASAGPSYEYGYWGQGTQVTVSS	low polyreactivity
QVQLVESGGGLVQAGGSLRLSCAASGSTFFRNAMGWYRQAPGKERELVASITSGGNTKYADSVKGRFTISRDNAKNTVYLQMNSLKPEDTAVYYCAAKFYHFASYSRLYNYWGQGTQVTVSS	low polyreactivity
QVQLVESGGGLVQAGGSLRLSCAASGSTFFRYAMGWYRQAPGKERELVAAISYSGDSTYYADSVKGRFTISRDNAKNTVDLQMNSLKPEDTAVYYCNAVYFRYRYNYWGQGTQVTVSS	high polyreactivity
QVQLVESGGGLVQAGGSLRLSCAASGSTFFRYAMGWYRQAPGKERELVAAITSGGNTYYADSVKGRFTISRDNAKNTVYLQMNSLIPEDTAVYYCAVVFWQLAHRYDYWGQGTQVTVSS	low polyreactivity
